We go through two substances from publication PMC12645962.

The target in assay [1] is 1059-SOSIP soluble Env trimer produced in FreeStyle 293 F cells (HIV-1 1059). The assay is described as follows: SEC; HiLoad 16/600 Superdex 200 pg column after GNA lectin affinity purification; trimeric fractions taken. (SEC sorts molecules by how far they enter the pores of the column.)
Assay [2] has as its target 1059-SOSIP soluble Env trimer produced in HEK293 cells grown in BalanCD medium (HIV-1 1059). The assay is described as above.

In turn, “1059-SOSIP soluble Env trimer produced in FreeStyle 293 F cells (domain or fragment)” gave a stoichiometry N in assay [1] of 3.

With “1059-SOSIP soluble Env trimer produced in HEK293 cells grown in BalanCD medium (domain or fragment)”, in assay [2], the stoichiometry N was found to be 3.

As usually defined, the stoichiometry N is a count of units in the complex or per binding partner.
